Data on 4 molecules can be found in US20240279618A1, “RECEPTOR TYROSINE KINASE AGONIST, COMPOSITION FOR CELL CULTURE MEDIUM, AND […] MAINTENANCE COMPOSITION” (SEKISUI CHEMICAL CO., LTD., priority 2021, published 2024).

Experiment [1] concerns NIH3T3 (mouse fibroblast cell line). Put plainly: Inhibition of growth factor activity of VHH homodimer by FGFR antagonist. Type of experiment: cell-based. Conditions: 20 nM. On the procedure: The cell growth assay for FGF2 was performed according to the following procedure. On Day 1, a suspension including 2.5×10^4 cells/mL of NIH3T3 in DMEM of 10% CS and PS(+) was created, seeded on a CulturPlate-96 (White Opaque 96-well Microplate, manufactured by Perkin Elmer, Cat #6005680) at 100 μL/well, and cultured in a 5% CO2 incubator at 37° C. for 16 to 24 hours. On Day 2, the medium was replaced with FGF2 (PeproTech Cat #AF-100-18B) or serum-free PS(+) DMEM including various test substances, and the cells were further cultured for 2 days. On Day 4, the 96-well plate was left at room temperature for 30 minutes, and then 100 μL of Cell Titer Glo 2.0 Reagent (manufactured by Promega Corporation) at room temperature was added to each well, followed by stirring at 500 rpm for 2 minutes using a plate mixer. The plate was further left to stand for 8 minutes, and then the luminescence in each well was measured with a Synergy HTX plate reader (manufactured by BioTek) with a sensitivity set (Gain) of 200 and a measurement time of 1 s/well.
The addition amounts of FGF2 and #1L4 (hereinafter also referred to as “#1-L4-#1”), which is a dimer of VHH #1 with a linker […], were each 10 or 100 ng/mL.

Experiment [2] concerns mouse fibroblast cell line NIH/3T3. Put plainly: Inhibition of growth factor activity of VHH homodimer by FGFR inhibitor (fibroblasts). Type of experiment: cell-based. The conditions noted are these: 20 nM. The text has this: Promotion of Fibroblast Growth by VHH (Homodimer)” described above.
It was examined whether the cell growth activities of bFGF and the single-domain antibody were inhibited by NPV-BGJ398 which is an FGFR kinase inhibitor.

For experiment [3], the target named is FGFR (fibroblast growth factor receptor on NIH3T3 mouse fibroblast cells). Put plainly: cell-based or functional assay.
The target of another experiment is T1, FGFR4-Fc (human, UniProt P22455 22-369, limits assumed).
T1 construct: not shown: Fc part
T1 sequence (looked up): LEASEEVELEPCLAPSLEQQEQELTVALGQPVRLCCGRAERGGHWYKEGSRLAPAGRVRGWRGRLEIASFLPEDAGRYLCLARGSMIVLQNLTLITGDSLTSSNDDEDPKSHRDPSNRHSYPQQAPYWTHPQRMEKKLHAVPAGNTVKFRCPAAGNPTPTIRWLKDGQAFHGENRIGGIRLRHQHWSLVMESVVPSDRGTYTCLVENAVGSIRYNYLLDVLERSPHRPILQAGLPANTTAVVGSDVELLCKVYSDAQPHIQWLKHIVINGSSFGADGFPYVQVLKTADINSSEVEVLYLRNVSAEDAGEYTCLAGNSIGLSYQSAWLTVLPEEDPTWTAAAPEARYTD
Put plainly: SPR (Biacore T200, same manner as Example 5, 1:1 model). Background: Surface plasmon resonance follows binding to a sensor surface in real time, without labels.

A further experiment addresses T2, FGFR3-Fc (human, UniProt P22607 23-375).
T2 chain: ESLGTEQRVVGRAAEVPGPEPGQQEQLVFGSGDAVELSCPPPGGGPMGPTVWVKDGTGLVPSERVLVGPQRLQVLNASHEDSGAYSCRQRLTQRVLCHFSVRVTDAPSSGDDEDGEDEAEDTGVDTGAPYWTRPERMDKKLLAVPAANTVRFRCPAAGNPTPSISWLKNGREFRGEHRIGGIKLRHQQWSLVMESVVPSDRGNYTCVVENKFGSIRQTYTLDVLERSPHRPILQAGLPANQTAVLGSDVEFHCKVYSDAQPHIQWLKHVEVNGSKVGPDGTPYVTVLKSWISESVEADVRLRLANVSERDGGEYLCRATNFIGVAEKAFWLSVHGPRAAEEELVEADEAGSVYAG
The description is as above.

For experiment [4], the target named is T3, FGFR1-DIIDIII (FGFR1 extracellular domain, DII and DIII domains) (human, UniProt P11362 142-365).
T3 construct: domain: DIIDIII; Expressed in AAVpro293T cells from a synthesised DNA fragment
T3 sequence (looked up): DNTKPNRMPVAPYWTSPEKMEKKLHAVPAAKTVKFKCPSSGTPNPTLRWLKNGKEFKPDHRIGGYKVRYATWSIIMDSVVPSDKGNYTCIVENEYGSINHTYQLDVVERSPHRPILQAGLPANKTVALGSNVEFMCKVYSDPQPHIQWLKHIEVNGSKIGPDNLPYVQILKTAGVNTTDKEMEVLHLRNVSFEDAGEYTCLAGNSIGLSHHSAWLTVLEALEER
Put plainly: BLI (Octet 384), VHH Clone #1 captured on Anti-Penta-HIS sensor, FGFR1 protein in solution from 100 nM in 2-fold dilutions, global 1:1 fit. Here is the method:
(§1) In the preparation for measurement, a tip of the sensor chip was immersed in 200 μL of the kinetics buffer for 10 minutes in order to hydrate the sensor chip. Thereafter, 70 μL of each measurement solution was added to a 384-well black plate (manufactured by Fortebio), and measurement was performed in the following steps 1) to 6). [0291] 1) Baseline step: Baseline measurement (30 seconds) in a kinetics buffer, [0292] 2) Loading step: Immobilization of a VHH antibody on a sensor (120 seconds), [0293] 3) Baseline step: Baseline measurement (30 seconds) in a kinetics buffer, [0294] […] 5) Dissociation step: Measurement in a kinetics buffer (120 seconds), [0296] 6) Regeneration step: Measurement in Glycin-HCl (pH 2.2) for 5 seconds and measurement in a kinetics buffer for 5 seconds are repeated three times.
(§2) After completion of the measurements, the measured value of a Reference (only the kinetics buffer) was subtracted from the actual measurement value, and Global Fitting was performed using a 1:1 binding model using Octet software to calculate the binding activity (FIG. 22).
For orientation: Biolayer interferometry detects binding as a change in optical thickness at a sensor tip.

For experiment [5], the target named is T4, FGFR1-DIII (FGFR1 extracellular domain, DIII domain) (human, UniProt P11362 251-365).
T4 construct: domain: DIII; Expressed in AAVpro293T cells from a synthesised DNA fragment
T4 sequence (looked up): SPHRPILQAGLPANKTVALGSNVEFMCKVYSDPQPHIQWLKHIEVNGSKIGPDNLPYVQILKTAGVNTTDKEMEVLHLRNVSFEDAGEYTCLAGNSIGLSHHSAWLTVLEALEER
The experiment is described as above. On the procedure: as §1, §2

Another experiment concerns the target FGFR2-Fc (human) (UniProt P21802). Put plainly: SPR (Biacore T200, same manner as Example 5, 1:1 model).
In experiment [6] the target is T5, FGFR1-DII (FGFR1 extracellular domain, DII domain) (human, UniProt P11362 142-250).
T5 construct: domain: DII; Expressed in AAVpro293T cells from a synthesised DNA fragment
T5 sequence (looked up): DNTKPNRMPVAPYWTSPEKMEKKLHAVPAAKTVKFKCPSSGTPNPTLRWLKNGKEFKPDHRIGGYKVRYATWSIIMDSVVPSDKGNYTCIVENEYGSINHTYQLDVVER
Description: BLI (Octet 384); VHH Clone #1 immobilised on an Anti-Penta-HIS sensor, FGFR1-DII in solution [A]. Here is the method: as §1, §2

The target in experiment [7] is FGF Receptor 1β (IIIc)/Fc Chimera Human Recombinant Carrier-free (R & D Systems Cat. no. 661-FR) (human) (UniProt P11362). Put plainly: SPR (Biacore T200, CAP chip, biotinylated FGFR1-Fc captured, VHH injected at 1.85-50 nM, single-cycle kinetics, 1:1 model, 25 C).

The term Kd denotes the equilibrium constant for the complex coming apart. The term koff denotes the rate constant with which the complex falls apart. Broadly, the kon is the rate constant with which the complex forms.

Take `CCN1CCN(c2ccc(Nc3cc(N(C)C(=O)Nc4c(Cl)c(OC)cc(OC)c4Cl)ncn3)cc2)CC1` [NVP-BGJ398]: the “effect of NVP-BGJ398 itself on cell growth” value in experiment [1] and in experiment [2] was “little effect on cell growth” throughout.
As for “basic FGF (PeproTech, AF-100-18B) (from UniProt P09038 135-288) (ligand)”, the EC50 of the growth of cultured fibroblasts (NIH/3T3, Cell Titer Glo luminescence) in experiment [3] amounted to 5.1 nM.

B1: VHH Clone #1 (VHH monomer Clone #1) (VHH)
VHH: QLQLVESGGGSVQAGGSLRLSCAASRSLSRFNVWTWYRQAPVKQRELVASITKSGDTNYAESVKGRFIISRDDDKNTVYLQMNNLKSEDTGIYYCAGSYYSGSYLYPSPGGFSVWGQGTQVTVSS
notes: also called VHH #1; FGFR #1; not shown: C-terminal His tag (purified on Ni Sepharose, captured on Anti-Penta-HIS sensor)
B1: the Kd with FGFR4-Fc was found to be 22.2 nM; with FGFR3-Fc it was 1010 nM; in [4], 0.489 nM; in experiment [5], 1.18 nM; with FGFR2-Fc (human), 1630 nM; in experiment [7], 1.74 nM. Besides, the koff worked out at 0.0527 s⁻¹ with FGFR4-Fc; 0.235 s⁻¹ with FGFR3-Fc; 0.000141 s⁻¹ in experiment [4]; 0.000351 s⁻¹ in [5]; 0.776 s⁻¹ with FGFR2-Fc (human). Also, the association rate constant (kon) with FGFR4-Fc was 2.37e+06 M⁻¹ s⁻¹; with FGFR3-Fc, 232000 M⁻¹ s⁻¹; in experiment [4], 289000 M⁻¹ s⁻¹; in [5] it was 298000 M⁻¹ s⁻¹; with FGFR2-Fc (human), 484000 M⁻¹ s⁻¹. Also, the binding result in [6] is on record as “no binding”.

B2: VHH Clone #2 (VHH monomer Clone #2) (VHH, not shown: small tags and cut ends)
VHH: QVQLVESGGGLVQAGGSLRLSCAVPGSIFRFNTMGWYRQPPGKQRELVAQMSRGGITKYGDSVKGRFTITRDNAKNTVHLQMNSLKPEDTAVYYCAGSYYSGSYYYPSPQGFSVWGQGTQVTVSP
For the molecule B2, in experiment [7], the Kd came to 1.02 nM, the koff was 0.00114 s⁻¹ and the kon amounted to 1.11e+06 M⁻¹ s⁻¹.
